Source: the DeepSol protein solubility set

Assay: soluble on expression in E. coli; label from the status in PepcDB or PDB records

Soluble on expression in E. coli, not soluble:
MGSDKIHHHHHHMALEDKDLRSIQEVRNLIESANKAQKELAAMSQQQIDTIVKAIADAGYDAREKLAKMAHEETGFGIWQDKVIKNVFASKHVYNYIKDMKTIGMLKEDNEKKVMEVAVPLGVVAGLIPSTNPTSTVIYKTLISIKAGNSIVFSPHPNALKAILETVRIISEAAEKAGCPKGAISCMTVPTIQGTDQLMKHKDTAVILATGGSAMVKAAYSSGTPAIGVGPGNGPAFIERSANIPRAVKHILDSKTFDNGTICASEQSVVVERVNKEAVIAEFRKQGAHFLSDAEAVQLGKFILRPNGSMNPAIVGKSVQHIANLAGLTVPADARVLIAEETKVGAKIPYSREKLAPILAFYTAETWQEACELSMDILYHEGAGHTLIIHSEDKEIIREFALKKPVSRLLVNTPGALGGIGATTNLVPALTLGCGAVGGSSSSDNIGPENLFNIRRIATGVLELEDIRKEENQATPELSVDADALIQSLVEKVLAELK
MGSDKIHHHHHHVDWNWNGDIRFRYDSSKTELASSPDKPADDRYRLRARFGVSPTINDELSAGLRLATGDGKNPTSTNQTLGKDFADKAIWLDEAYINYHPKALEGKVNVLLGKRDIAKTFNVVKDLVWDSDVTIEGATLQYGKDVSGKQKSGPSLIAGYYTLENYATASDPCIFAVQGAYMGTVSGADFNLGASYFDYVHMKNVAWWNSPNGPANDGKDFRILEVFGTLGGKLGGSLPATLYAQYAHNTALNSDNNAVLAGLKLGSDKKPGGWTLDGGYFYIEKYAVTPLTDGDRPMSSKYSTDIKGLKIGATYQLVQNMTLGATYFHVNPVDSSLTGSTSDHKNLVQADVAVNF
MSLRVRQIDRREWLLAQTATECQRHGREATLEYPTRQGMWVRLSDAEKRWSAWIKPGDWLEHVSPALAGAAVSAGAEHLVVPWLAATERPFELPVPHLSCRRLCVENPVPGSALPEGKLLHIMSDRGGLWFEHLPELPAVGGGRPKMLRWPLRFVIGSSDTQRSLLGRIGIGDVLLIRTSRAEVYCYAKKLGHFNRVEGGIIVETLDIQHIEEENNTTETAETLPGLNQLPVKLEFVLYRKNVTLAELEAMGQQQLLSLPTNAELNVEIMANGVLLGNGELVQMNDTLGVEIHEWLSESGNGE
MEFYSQSRFSNWVNKIAETELDEDNPETFAVFDQMLEDVIIACLSIIRAVKEREIRKADAVKEVEKILGLIPNHDFGDELKNELFQFTLESIKAVLLSFRLYFEGKISKKSFEALLKDALKKEQSGDYEGSLNAVAQMGAKVIKGEQLPELDIPEDSAVISWIDGIDAISSVLELSKIDAPTE
MKPTFLEFRHLKTLLALKETGSVSLAAKRVYLTQSALSHQIKLIEEQFGLPLFERKSNPLRFTSAGERLIRLANEVMPKVIDAERDLARVKHGDAGQLRIAVECHTCFDWLMPAMDEFRQHWGLVELDIVSGFHTDPVGLLLSHRADWAIVSEIEHNDDVIFKPLFSYEMVGICSKNHSLAEKDIWEAEDFIDETWVTYPVPDDMLDLWRKVLKSKGINPTRRTTELTIAMIQLVASRRGIATIPYWAALPYLEKGYVVARKVTKEGLYSNLYAAIRKEDESLSYLEDFYQTVKSQSFSTLPGLSVLNL
MVTLYGIKNCDTIKKARRWLEANNIDYRFHDYRVDGLDSELLNGFINELGWEALLNTRGTTWRKLDETTRNKITDAASAAALMTEMPAIIKRPLLCAPGKPMLLGFSDSSYQQFFHEV
MQVFCFTPKGEVVKLPRGATPIDFAFAIHTRIGMACVGAKVDHMRVPLWTRLKNGQSVEVITAEGQSPQATWLEHHHHHH
MASISSLGVGSNLPLDQLLTDLTKNEKGRLTPITKQQSANSAKLTAYGTLKSALEKFQTANTALNKADLFKSTVASSTTEDLKVSTTAGAAAGTYKINVTQLAAAQSLATKTTFATTKEQLGDTSVTSRTIKIEQPGRKEPLEIKLDKGDTSMEAIRDAINDADSGIAASIVKVKENEFQLVLTANSGTDNTMKITVEGDTKLNDLLAYDSTTNTGNMQELVKAENAKLNVNGIDIERQSNTVTDAPQGITLTLTKKVTDATVTVTKDDTKAKEAIKSWVDAYNSLVDTFSSLTKYTAVEPGEEASDKNGALLGDSVVRTIQTGIRAQFANSGSNSAFKTMAEIGITQDGTSGKLKIDDDKLTKVLKDNTAAARELLVGDGKETGITTKIATEVKSYLADDGIIDNAQDNVNATLKSLTKQYLSVSNSIDETVARYKAQFTQLDTMMSKLNNTSSYLTQQFTAMNKS
MSTQSILTKPTEATAFQPDQVVRILETVLLTTPEPLSISDLKKLFEGNIDKKTLHESLTILSEKWHDSGINLVSVAGGWRFQSKPEMQVFLDRLNPQRPPRYSRAVMETLAIIAYRQPVTRGDIEEIRGVAVSTQIIKTLESRGWIETIGQRDIPGKPYLYATTRHFLDDLNLQSLEQLPSLDSFNSLDLSADEAESVDTDTTTIQESGEPASHEPTQLL
MDWMPLGDYETFRHWSGKPRAWGPQESGWRAWFGGKIVDGLCEVLDEHLAVRRRGVPAAIGCVPWLSSEAVAETLLALSVFCVVIDKGTSFPSRLRNPDKGFPNVALLRLRDMAPSEHGSRCSSARGRLCLSMS
MTSSIPFRSFNEKYECNDDDNFTYSSTEQKRIETMLFENYNSLVLEPFKTTSDEDLAELTIFRQKHASYLLRYLKNCPSSYATLDASRSWMCYWGVNALKILDAEIPNDVIENIIVFLKSCEHPEGGYGGGPGQLAHLAPTYAAVMCLVSLQKEEALRSINRVTLFNFLKKCKHESGGFYMHEGGEIDMRSAYCALATCEIVGLPMDEISNGVAEWIISCQSFEGGFGGEPYTEAHGGYTFCAVASLVLLNRFRLADMEGLLRWATRRQMRFEGGFQGRTNKLVDGCYSFWQGAIFPLLDGEMEREGRSLEKGLFEARMLEEYILVGCQSVHGGFKDKPDKPVDLYHTCYVLSGLSVAQKYSLARDGKILGGDVNMLAEINPVFNVTIASEQFAKEFFTSH

Soluble on expression in E. coli, soluble:
MGSSHHHHHHSSGLVPRGSHMSRVTVLQSQLPAYNRLKTPYESELIATVKKLTTPGKGLLAADESIGSCTKRFQPIGLSNTEEHRRQYRALMLEAEGFEQYISGVILHDETVGQKASNGQTFPEYLTARGVVPGIKTDMGLCPLLEGAEGEQMTEGLDGYVKRASAYYKKGCRFCKWRNVYKIQNGTVSESAVRFNAETLARYAILSQMSGLVPIVEPEVMIDGKHDIDTCQRVSEHVWREVVAALQRHGVIWEGCLLKPNMVVPGAESGKTAAPEQVAHYTVMTLARTMPAMLPGVMFLSGGLSEVQASEYLNAINNSPLPRPYFLSFSYARALQSSALKAWGGKESGLAAGRRAFLHRARMNSMAQLGKYKRSDDDASSSSLYVKGNTY
MFKSVAKCDKVEKMLLGTFNLTLDNKNRISLPAKLRSFFDSSIVINRGFENCLEIRKPADFESYFQTFNNFPNTQKDTRTLKRLIFANANLVELDSANRILIPNNLISDAKLDKEIVLIGQFDHLEVWDKVQYEQYLASSESLETVAERMKDAK
MSLRRGIYHIENAGVPSAIDLKDGSSSDGTPIVGWQFTPDTINWHQLWLAEPIPNVADTFTLCNLFSGTYMDLYNGSSEAGTAVNGWQGTAFTTNPHQLWTIKKSSDGTSYKIQNYGSKTFVDLVNGDSSDGAKIAGWTGTWDEGNPHQKWYFNRMSVSSAEAQAAIARNPHIHGTYRGYILDGEYLVLPNATFTQIWKDSGLPGSKWREQIYDCDDFAIAMKAAVGKWGADSWKANGFAIFCGVMLGVNKAGDAAHAYNFTLTKDHADIVFFEPQNGGYLNDIGYDSYMAFY
MQSVTPTSQYLKALNEGSHQPDDVQKEAVSRLEIIYQELINSRPPAPRTSGLMARVGKLWGKREDTKHTPVRGLYMWGGVGRGKTWLMDLFYQSLPGERKQRLHFHRFMLRVHEELTALQGQTDPLEIIADRFKAETDVLCFDEFFVSDITDAMLLGGLMKALFTRGITLVATSNIPPDELYRNGLQRARFLPAIDAIKQHCDVMNVDAGVDYRLRTLTQAHLWLSPLNDETRAQMDKLWLALAGVKRENSPTLEINHRPLATMGVENQTLAVSFTTLCVDARSQHDYIALSRLFHTVMLFDVPVMTRLMESEARRFIALVDEFYERHVKLVVSAEVPLYEIYQGERLKFEFQRCLSRLQEMQSEEYLKREHLAGLEHHHHHH
MRRCCGDLAASRGGCEPASRNLTRTRLTFAALGRINRPAEHDREDAMTRQEARDHEPRDQDAALSRRTLVRGLALGAAATMAGPALAQTGPAAPPTTITTPPRDFGPNGAPTTYFWDPDIIAVDPSFDDLAQPNTAIKRLYTGVLWAEGPAWSAQGRYLLWSDIPNNRQMRWSEDDGRISVFRSPSNNSNGNSFDFQGRQLSCEHLTRRVTRYEHDGTATVLCDNYNGKKLNSPNDVVAHPDGSYWFTDPPYGGQLYEGEPDAAGGPSNSGGKLNPRIGQPAGFTPGKRELPTNCYRIDPSGRVDLVVTEEQVPDPNGLCFSPDFKKLYVVSTGKGPGDSGPGGKGEIFVFDVGADNKLSNQKRFSDCTIDGVKCGPDGVRCDVNGNVWASSNAGRAVGYSGVTVWSPEGKLLGRIRLPEVCGNICFGGPKRNRLFMAASQSLYAVFTATQGAGPGLEHHHHHH
GSPQAHPVPKDARITHSSGQSFEQMRQECLQRGTLFEDADFPASNSSLFYSERPQIPFVWKRPGEIVKNPEFILGGATRTDICQGELGDCWLLAAIASLTLNQKALARVIPQDQSFGPGYAGIFHFQFWQHSEWLDVVIDDRLPTFRDRLVFLHSADHNEFWSALLEKAYAKLNGSYEALKGGSAIEAMEDFTGGVAETFQTKEAPENFYEILEKALKRGSLLGCFIDTRSAAESEARTPFGLIKGHAYSVTGIDQVSFRGQRIELIRIRNPWGQVEWNGSWSDSSPEWRSVGPAEQKRLCHTALDDGEFWMAFKDFKAHFDKVEICNLTPDA
QRNGFCRLPADEGICKALIPRFYFNTETGKCTMFSYGGCGGNENNFETIEECQKACGAPERVNDFESADFKTGCEPAADSGSCAGQLERWFYNVQSGECETFVYGGCGGNDNNYESEEECELVCKNM
SNAMNDIVASTQLPNTIKTITNDLRKLGLKKGMTVIVHSSLSSIGWISGGAVAVVEALMEVITEEGTIIMPTQSSDLSDPKHWSRPPVPEEWWQIIRDNVPAFEPHITPTRAMGKVVECFRTYPNVVRSNHPLGSFAAWGRHAEEITVNQSLSMSLGEESPLRKIYDLDGYILLIGVGYDSNTSVALSEVRSGACELIKVGAPIIENGERVWKEFVDMDYDSDKFVEIGVEFEQKGTVTMGKIGNAKCRLMKQRDIVDFGTEWFRKKN
MILHPRPSPIAAAMYQLRDIGVDAIILHGPSGCCFRTARLLEIDGIRVFTSAMGENDFIFGAMDKLRDVIAEVLEYLKKETPKSEKYKIGIVGTCASMIIGEDLESLIDDFDDIIIPVDIHSGLVDNTVGAIRAMDGALNAGLIDYSEYERQKKMLEHHHHHH
MKPKETVCFNIKYSWHAISRMYNERASKYGTTAAVGFILLNIDVEKGTAATHIGPALGMEATSLSRVFNTMEQDGLIERRNDSSDKRKVTIFLTALGKDKRQIAKDFVLDFNNKVREQVSESKLNTFFEVLHEIQSIIDNKNTSLT
MATKARVMYDFAAEPGNNELTVTEGEIITVTNPNVGGGWLEGKNNKGEQGLVPTDYVEILPNDGKDPFSC
MKVVELKNVKKIYPDGTIALKGVSLSVEEGEFLGVMGPSGSGKSTLLHLIGGLDKPSEGIVKVFGKEINHLDEDELAEMRKRKIAYVFQFYYLLEDFSVLENLTLIGELAGIKNPKKKALELLDFLRLSHRINHKPYQLSGGEQQRVAIGRALMVEPKLILADEPTGNLDSKEGFRIFELFKELNEKGITFVVATHNDSLKPFFGRIINLRDGEIVTQR
